Reference: patent publication US20220057415A1, “METHOD FOR DETECTING ALLERGIC DISEASES” (The University of Tokyo, priority 2018, published 2022)

Columns and labels:
BALB/C mice [1] = test: Evaluation of sneezing symptom; type: in vivo
Experimental: (§1) To 23 BALB/C mice (female, 5 weeks old) (CLEA Japan, Inc., the same applies hereinafter), 50 μg of ovalbumin (manufactured by Sigma, sometimes abbreviated as “OVA” herein) dissolved and diluted with physiological saline (manufactured by Otsuka Pharmaceutical Co., Ltd.) and 1 mg of aluminum potassium sulfate (manufactured by Sigma-Aldrich Co. LLC.) were intraperitoneally administered simultaneously, and, after two weeks, 50 μg of OVA was intraperitoneally administered again for sensitization. Two weeks after the second sensitization, OVA (400 μg/10 μL) was transnasally administered once daily for 5 days (5 times, in total) or 10 days (10 times, in total) for stimulation, thereby preparing allergic rhinitis (sometimes abbreviated as “AR” herein) model mice. […]
For the AR model mice (22 mice) and solvent-administered group (10 mice) prepared in Example 1, the numbers of sneezes for a period of 10 minutes from 1 minute to 11 minutes after each of the first to tenth administrations of OVA or the solvent were counted. For the upper respiratory inflammation model mice (9 mice) and single-time solvent-administered group (6 mice) prepared in Example 1, the numbers of sneezes were counted hourly after the administration of LPS or the solvent (until 10 hours later).

[2] = tested on: ovalbumin-specific IgE in serum; test: Ovalbumin-specific IgE level in serum (ELISA); type: in vivo, BALB/C mice; conditions: OVA-sensitized mice (two i.p. sensitizations, not stimulated with OVA); not detected in unsensitized group; mean±SD
Experimental: as §1
Antigen sensitization is known to increase the antigen-specific IgE value in serum. To confirm the ovalbumin sensitization of the allergic rhinitis model mice prepared in Example 1 (1), the ovalbumin-specific IgE level in serum was measured. […] The freeze-preserved serum was diluted 25 times, and then the IgE level was measured using Anti-Ovalbumin IgE (mouse) ELISA Kit (manufactured by Cayman Chemical Company) according to the instructions attached to the kit.

BALB/C mice [3] = test: Histopathological count of immunocytes infiltrated into nasal turbinates; type: in vivo
Experimental: Specifically, the maxilla was excised from the mice and immediately immersed in 4% paraformaldehyde at 4° C. for 5 days. Then, it was immersed in EDTA every day and decalcified at 4° C. for 10 days. Next, the bone covering the orbit was excised with a razor, dehydrated and cleared, and then embedded in paraffin to prepare continuous section specimens having a width of 4 μm. Hematoxylin-eosin staining (HE staining), chloroacetate-esterase staining (CAE staining), toluidine blue staining (TB staining) or May-Grünwald Giemsa staining (MG staining) was performed according to a conventional method for encapsulation. Specific staining procedures are as will be described below. The stained nasal cavity tissue was observed under an optical microscope (ACT-10, manufactured by Nikon Corporation), and imaged using a digital microscope camera (OPTIPHOT-2, manufactured by Nikon Corporation). The number of immunocytes (connective tissue type mast cells, mucosal type mast cells, eosinophils and neutrophils) in the nasal turbinates (sites where inflammatory cells infiltrate when rhinitis occurs and where many capillaries gather) was counted within 16 to 24 randomly selected areas (magnification: ×400) per section. CAE staining is a staining method in which mast cell-specific esterase is stained red using naphthol AS-D chloroacetate as a substrate. The continuous section specimens prepared in the above item (1) were deparaffinized and used for staining. A 4% sodium nitrite solution and a new fuchsin solution were mixed at a ratio of 1:1, and then this solution and a naphthol solution were mixed at a ratio of 1:9. This solution and phosphate buffer (0.2M NaH2PO4, 0.2M Na2HPO4, pH 7.6) were mixed at a ratio of 1:20, and the sections were immersed for 10 minutes. The sections were washed with distilled water and then counterstained with a hematoxylin solution. The total number of the mast cells (connective tissue type mast cells and mucosal type mast cells) present in the connective tissue and mucosal tissue within 1 mm^2 was counted to calculate the mean value and standard deviation. TB staining stains acidic mucous polysaccharides. Acidic mucous polysaccharides are present in the connective tissue type mast cells and absent in the mucosal type mast cells. The continuous section specimens prepared in the above item (1) were deparaffinized and then immersed in a 0.05% toluidine blue solution (pH: 4.1) for 10 minutes. Then, they were decolorized with a 90% alcohol solution and then encapsulated. CAE staining stains both the connective tissue type mast cells and the mucosal type mast cells, whereas TB staining stains only the connective tissue type mast cells. CAE staining and TB staining were performed on different sections, and cells positive for CAE staining and positive for TB staining were decided as connective tissue type mast cells. Also, cells positive for CAE staining and negative for TB staining were decided as mucosal type mast cells. The total number of the connective tissue mast cells or mucosal type mast cells present in the connective tissue and mucosal tissue within 1 mm^2 was counted to calculate the mean value and standard deviation. May-Grünwald Giemsa staining stains eosinophil-specific eosinophilic granules red. The continuous section specimens prepared in the above item (1) were deparaffinized and then immersed in a May-Grünwald staining solution for 6 minutes. Then, the sections were washed with 1/15 M-phosphate buffer (×10) (0.2M NaH2PO4, 0.2M Na2HPO4, pH 6.4 to 6.8). Thereafter, the sections were immersed for 3 minutes in a solution obtained by mixing a Giemsa staining solution and distilled water at a ratio of 1:20. HE staining and MG staining were performed on different sections, and cells confirmed to have a multilobed nucleus by HE staining and positive for MG staining were decided as eosinophils. Also, cells have a multilobed nucleus by HE staining and negative for MG staining were decided as neutrophils. […]

BALB/C mice [4] = test: Measurement of nasal cavity volume by computed tomography; type: in vivo
Experimental: To 23 BALB/C mice (female, 5 weeks old) (CLEA Japan, Inc., the same applies hereinafter), 50 μg of ovalbumin (manufactured by Sigma, sometimes abbreviated as “OVA” herein) dissolved and diluted with physiological saline (manufactured by Otsuka Pharmaceutical Co., Ltd.) and 1 mg of aluminum potassium sulfate (manufactured by Sigma-Aldrich Co. LLC.) were intraperitoneally administered simultaneously, and, after two weeks, 50 μg of OVA was intraperitoneally administered again for sensitization. […]
The nasal cavity volume of the AR model mice prepared in Example 1 was measured by computed tomography before the administration of OVA (6 mice), 24 hours after the fifth administration of OVA (6 mice), and 24 hours after the tenth administration of OVA (6 mice). As a control, the nasal cavity volume of the solvent-administered group prepared in Example 1 was measured in the same manner as above before the administration of the solvent (6 mice), 24 hours after the fifth administration of the solvent (6 mice), and 24 hours after the tenth administration of the solvent (6 mice). […] From the captured image, regions having a CT value of −900 to −300 HU (Hounsfield unit) were decided as the nasal cavities, and their volume was measured.

[5] = 10-time OVA-administered group vs 10-time solvent-administered group

B1: OVA: ovalbumin (manufactured by Sigma), antigen used for sensitization and stimulation of the allergy models (protein, UniProt P01012 2-386, looked up)
Ovalbumin: GSIGAASMEFCFDVFKELKVHHANENIFYCPIAIMSALAMVYLGAKDSTRTQINKVVRFDKLPGFGDSIEAQCGTSVNVHSSLRDILNQITKPNDVYSFSLASRLYAEERYPILPEYLQCVKELYRGGLEPINFQTAADQARELINSWVESQTNGIIRNVLQPSSVDSQTAMVLVNAIVFKGLWEKAFKDEDTQAMPFRVTEQESKPVQMMYQIGLFRVASMASEKMKILELPFASGTMSMLVLLPDEVSGLEQLESIINFEKLTEWTSSNVMEERKIKVYLPRMKMEEKYNLTSVLMAMGITDVFSSSANLSGISSAESLKISQAVHAAHAEINEAGREVVGSAEAGVDAASVSEEFRADHPFLFCIKHIATNAVLFFGRCVSP
BALB/C mice [1]; allergic rhinitis model mice, from the first transnasal administration of OVA
  frequency of sneezing: observed to increase
BALB/C mice [1]; fifth administration of OVA, compared with solvent-administered group, maintained until tenth administration
  number of sneezes for 10 minutes after administration: significantly increased
[2]
  serum ovalbumin-specific IgE: 23 ± 6.29 ng/mL
BALB/C mice [3]; 5-time OVA-administered group vs 10-time solvent-administered group
  number of eosinophils infiltrated into the nasal turbinates: significant increase
BALB/C mice [3]; 5-time OVA-administered group vs LPS-administered group
  number of infiltrated eosinophils: significantly increased
BALB/C mice [3]; 5-time OVA-administered group, solvent-administered groups and LPS-administered group compared
  number of mucosal type mast cells infiltrated into the nasal turbinates: no significant difference
BALB/C mice [3]; 10-time OVA-administered group vs 5-time OVA-administered group
  number of infiltrated eosinophils: significantly increased
BALB/C mice [3]; [5]
  number of eosinophils infiltrated into the nasal turbinates: significant increase
  number of mucosal type mast cells infiltrated into the nasal turbinates: significant increase
BALB/C mice [3]; OVA-administered groups (5 and 10 times) and solvent-administered groups
  number of neutrophils infiltrated into the nasal turbinate: no significant difference
BALB/C mice [3]; OVA-administered groups (5 and 10 times), solvent-administered groups and LPS-administered group compared
  number of connective tissue type mast cells infiltrated into the nasal turbinates: no significant difference
BALB/C mice [4]; 5-time OVA-administered group, 24 hours after fifth administration
  nasal cavity volume: decreased
BALB/C mice [4]; 10-time OVA-administered group, compared with before the administration of OVA
  nasal cavity volume: significantly decreased
